Test results from patent US20060253917A1 (published 2006).

Legend:
OsMADS45 aa 50-198 [1] = target: T1, OsMADS45 aa 50-198 (Oryza sativa, UniProt P0C5B0 50-198); assay: Y2H; input trait library
T1 construct: bait, Gal4 DBD fusion; also called PN20231; O. sativa MADS box protein MADS45
T1 sequence: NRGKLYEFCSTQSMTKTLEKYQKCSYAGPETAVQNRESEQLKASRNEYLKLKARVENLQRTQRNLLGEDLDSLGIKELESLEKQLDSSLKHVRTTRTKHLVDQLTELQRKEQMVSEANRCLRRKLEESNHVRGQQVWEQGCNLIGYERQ
Summary of the method: (§1)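 Protein-protein interactions were detected with an automated, high-throughput yeast two-hybrid assay provided by Myriad Genetics Inc. (Salt Lake City, Utah). A bait clone encoding a defined amino-acid fragment of a rice protein was screened against a rice prey library, either the input trait or the output trait library. Prey clones were retrieved, and their encoding sequences were compared by BLAST against databases to identify the interacting proteins.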

OsSGT1 aa 200-368 = target: T2, OsSGT1 aa 200-368 (Oryza sativa, UniProt Q0JL44 200-367); assay: Y2H; output trait library
T2 construct: bait, Gal4 DBD fusion; also called PN20285
T2 sequence: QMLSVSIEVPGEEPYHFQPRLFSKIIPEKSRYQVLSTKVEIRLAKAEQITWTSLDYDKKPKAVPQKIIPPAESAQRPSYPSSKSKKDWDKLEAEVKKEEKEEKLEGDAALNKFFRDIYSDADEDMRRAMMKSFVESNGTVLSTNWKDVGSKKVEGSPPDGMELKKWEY
Summary of the method: (§2)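 The values record whether an interaction was detected. In an automated, high-throughput yeast two-hybrid screen from Myriad Genetics Inc., rice protein fragments defined by amino-acid range were used as bait against rice prey clone libraries. Full-length genes were identified by BLAST comparison of the sequences encoding the interacting prey fragments against databases.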

OsMADS45 aa 50-198 [2] = target: T1, OsMADS45 aa 50-198; assay: Y2H; output trait library
Summary of the method: as §1

OsHOS59 aa 1-206 = target: T3, OsHOS59 aa 1-206 (Oryza sativa, UniProt Q94LW4 113-311); assay: Y2H; output trait library
T3 construct: bait, Gal4 DBD fusion; also called PN20559
T3 sequence: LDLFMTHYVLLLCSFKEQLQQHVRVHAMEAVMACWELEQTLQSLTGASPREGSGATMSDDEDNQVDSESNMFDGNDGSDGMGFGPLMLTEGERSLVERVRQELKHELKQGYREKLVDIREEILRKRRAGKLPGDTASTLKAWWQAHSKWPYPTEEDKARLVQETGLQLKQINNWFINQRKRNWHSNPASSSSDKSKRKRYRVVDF
Summary of the method: as §1

OsTFX1 aa 400-629 = target: T4, OsTFX1 aa 400-629 (Oryza sativa); assay: Y2H; output trait library
T4 construct: bait, Gal4 DBD fusion; also called PN19697; O. sativa Putative Transcription Factor X1
Summary of the method: as §1

Os018989-4003 aa 90-220 = target: T5, Os018989-4003 aa 90-220 (Oryza sativa); assay: Y2H; input trait library
T5 construct: bait, Gal4 DBD fusion; also called PN21044
T5 chain: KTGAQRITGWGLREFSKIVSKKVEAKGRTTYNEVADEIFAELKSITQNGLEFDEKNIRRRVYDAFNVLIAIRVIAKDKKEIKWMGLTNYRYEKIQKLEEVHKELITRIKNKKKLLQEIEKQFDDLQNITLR
Summary of the method: as §1

OsHSP70 aa 138-360 = target: T6, OsHSP70 aa 138-360 (Oryza sativa); assay: Y2H; output trait library
T6 construct: bait, Gal4 DBD fusion; also called PN20775; heat shock protein hsp70
Summary of the method: as §2

OsMADS6 aa 50-200 = target: T7, OsMADS6 aa 50-200 (Oryza sativa, UniProt Q6EU39 50-200); assay: Y2H; input trait library
T7 construct: bait, Gal4 DBD fusion; also called PN20233
T7 sequence: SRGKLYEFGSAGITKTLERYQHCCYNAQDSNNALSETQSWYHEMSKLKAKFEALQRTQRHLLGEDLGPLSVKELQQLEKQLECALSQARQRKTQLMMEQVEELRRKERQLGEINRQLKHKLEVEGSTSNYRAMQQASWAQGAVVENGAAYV
Summary of the method: as §1

OsMADS45 aa 61-248 = target: T8, OsMADS45 aa 61-248 (Oryza sativa, UniProt P0C5B0 61-248); assay: Y2H; output trait library
T8 construct: prey, AD fusion; also called PN20231
T8 sequence: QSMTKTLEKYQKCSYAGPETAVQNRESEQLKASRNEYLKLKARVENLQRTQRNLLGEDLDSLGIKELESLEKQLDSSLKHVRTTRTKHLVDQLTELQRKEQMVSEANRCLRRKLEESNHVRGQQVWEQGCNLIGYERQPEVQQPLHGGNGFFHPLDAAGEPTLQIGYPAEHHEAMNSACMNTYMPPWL
Summary of the method: as §1

T4 sequence (chain, as listed by the source): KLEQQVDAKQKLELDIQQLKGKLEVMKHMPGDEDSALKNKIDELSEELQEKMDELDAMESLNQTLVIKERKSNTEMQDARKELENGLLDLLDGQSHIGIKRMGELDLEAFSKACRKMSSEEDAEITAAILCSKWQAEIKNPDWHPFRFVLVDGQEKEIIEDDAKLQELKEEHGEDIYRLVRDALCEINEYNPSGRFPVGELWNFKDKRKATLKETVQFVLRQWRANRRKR
T6 sequence (chain, as listed by the source): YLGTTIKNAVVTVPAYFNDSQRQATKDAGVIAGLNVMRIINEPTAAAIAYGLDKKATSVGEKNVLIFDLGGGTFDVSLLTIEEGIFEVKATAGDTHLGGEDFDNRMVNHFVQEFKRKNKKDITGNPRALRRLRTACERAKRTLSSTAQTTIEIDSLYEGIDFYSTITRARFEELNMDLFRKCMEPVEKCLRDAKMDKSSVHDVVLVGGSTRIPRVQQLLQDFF

B1: OsPN23495 aa 12-198 (other)
chain: PPAAAEDGRVTSHVDPFLVEALDNPRHRLMVLRMAMDIQKFMQNPQLHEFEFQHFPTSYLRCAAHRVAQHYGLETTVADSLVDGSVSKIVAKKTSESKLPVIALSEVPSKQARNEHEAAEKLKFVICPRPKAFQNGAGDAGAKNNAARTVEERIEEYNKARARIFNGSISDIEGTSDLGALSVARDE
notes: prey, AD fusion
binding result (OsMADS45 aa 50-198 [1]): binds

B2: PN23949 aa 244-418 (other)
chain: HKLKSSLILMPMVSLLLLLLIRVLGRNRISPSPALSTLPKDEVERMVEEADKFAQEDKEKRDAIDTKNQADSVVYQTEKQLKELGDKVPAPVKEKVDAKLNELKEAIAGGSTQSMKDAMAALNEEVMQIGQAMYNQQPNAGAAGPTPGADAGPTSSGGKGPNDGDVIDADFTDSN
notes: prey, AD fusion; also called HSP70-like
binding result (OsSGT1 aa 200-368): binds

B3: OsMADS14 aa 124-223 (other)
chain: ELQQLEQQLENSLKHIRSRKSQLMLESINELQRKEKSLQEENKVLQKELVEKQKVQKQQVQWDQTQPQTSSSSSSFMMREALPTTNISNYPAAAGERIED
notes: prey, AD fusion; also called PN20910
binding result (OsMADS45 aa 50-198 [2]): binds

B4: OsSGT1 aa 9-227 (other)
chain: LESKAKAAFVDDDFELAAELYTQAIEASPATAELYADRAQAHIKLGNYTEAVADANKAIELDPSMHKAYLRKGAACIRLEEYQTAKAALELGYSFASGDSRFTRLMKECDERIAEELTEVPVKKAEDGAAAPSVASFVEEKDDAANMDNTPPMVEVKPKYRHDFYNSATEVVLTIFAKGVPAENVVVDFGEQMLSVSIEVPGEEPYHFQPRLFSKIIPE
notes: prey, AD fusion; also called PN20285
binding result (OsSGT1 aa 200-368): binds

B5: OsPN23829 aa 1-247 (other)
chain: MALSVEKTSSGREYKVKDLSQADFGRLEIELAEVEMPGLMACRAEFGPSQPFKGARISGSLHMTIQTAVLIETLTALGAEVRWCSCNIFSTQDHAAAAIARDSAAVFAWKGETLEEYWWCTERCLDWGVGGGPDLIVDDGGDATLLIHEGVKAEEEFEKSGKVPDPESTDNAEFKIVLTIIRDGLKSDPSKYRKMKERLVGVSEETTTGVKRLYQMQETGALLFPAINVNDSVTKSKFDNLYGCRHS
notes: prey, AD fusion
binding result (OsHOS59 aa 1-206): binds

B6: OsMADS14 aa 82-197 (other)
chain: SAESDTQGNWCHEYRKLKAKVETIQKCQKHLMGEDLESLNLKELQQLEQQLENSLKHIRSRKSQLMLESINELQRKEKSLQEENKVLQKELVEKQKVQKQQVQWDQTQPQTSSSSS
notes: as for B3
binding result (OsMADS45 aa 50-198 [2]): binds

B7: OsPN23829 prey clone -2-195 (other)
chain: MALSVEKTSSGREYKVKDLSQADFGRLEIELAEVEMPGLMACRAEFGPSQPFKGARISGSLHMTIQTAVLIETLTALGAEVRWCSCNIFSTQDHAAAAIARDSAAVFAWKGETLEEYWWCTERCLDWGVGGGPDLIVDDGGDATLLIHEGVKAEEEFEKSGKVPDPESTDNAEFKIVLTIIRDGLKSDPSKYRKM
notes: prey, AD fusion
binding result (OsTFX1 aa 400-629): binds

B8: OsAAK72891 aa 322-549 (other)
chain: EIITYFKSEMSKLKRMHELDLQEKTEELFKFKREKGLLTLKNDVEFEPLRKKIPQIISRMDQIISKNIKMPSLCMTNDGLDERCISAKRIDSLYYENQHLRGLLADNMKDVKELSSQLSEASKEMSIQLSSEDDLLRQIAKIKEEYEDLQIEAGVRDGVYQTITRKLLDDSMNSMHDAATNFSTELSSLEAMISEKEKALCLSNEENRMLKEKIAELEQCLIQDKQED
notes: prey, AD fusion; also called PN26317
binding result (Os018989-4003 aa 90-220): binds

B9: OsPN23829 prey clone -4-226 (other)
chain: MALSVEKTSSGREYKVKDLSQADFGRLEIELAEVEMPGLMACRAEFGPSQPFKGARISGSLHMTIQTAVLIETLTALGAEVRWCSCNIFSTQDHAAAAIARDSAAVFAWKGETLEEYWWCTERCLDWGVGGGPDLIVDDGGDATLLIHEGVKAEEEFEKSGKVPDPESTDNAEFKIVLTIIRDGLKSDPSKYRKMKERLVGVSEETTTGVKRLYQMQETGALLFPA
notes: prey, AD fusion
binding result (OsTFX1 aa 400-629): binds

B10: OsPN29117 aa 11-160 (other)
chain: GPAVRLRVSHGASFRDVAVPAHSTFGELKGVLTQATGVEPERQRLFFRGKEKSDNEFLHTAGVKDGAKLLLLEKPAPANVEQRAEPVIMDESMMKACEAVGRVRAEVDRLSAKVCDLEKSVFAGRKIEDKDFVVLTELLMMELLKLDGIE
notes: prey, AD fusion
binding result (OsHSP70 aa 138-360): binds

B11: OsPN23495 aa 39-165 (other)
chain: RLMVLRMAMDIQKFMQNPQLHEFEFQHFPTSYLRCAAHRVAQHYGLETTVADSLVDGSVSKIVAKKTSESKLPVIALSEVPSKQARNEHEAAEKLKFVICPRPKAFQNGAGDAGAKNNAARTVEERI
notes: prey, AD fusion; also called Novel protein PN23495
binding result (OsMADS45 aa 50-198 [1]): binds

B12: OsPN30858 aa 230-400 (other)
chain: VRTFLERTHERCRASYMEAVLEKQSYILLSRNDVESLMRLDPANLSLQNSFGQLDHSIPDAEAVEVEIELSDLLLDMCPIKQENLIHDDQKLILLASLSDSLEYLADSVERLGESFINSSTMLENKNHIHQGRHTRSTSAIPKSLASLANEYRRLAIDCVRVLRLEMQLET
notes: prey, AD fusion; also called Novel Protein PN30858
binding result (OsHOS59 aa 1-206): binds

B13: OsRAP1B aa 1-188 (other)
chain: MGRGKVQLKRIENKINRQVTFSKRRSGLLKKANEISVLCDAEVALIIFSTKGKLYEYATDSCMDKILERYERYSYAEKVLISAESDTQGNWCHEYRKLKAKVETIQKCQKHLMGEDLESLNLKELQQLEQQLENSLKHIRSRKSQLMLESINELQRKEKSLQEENKVLQKELVEKQKVQKQQLQWDQT
notes: prey, AD fusion; also called PN20232
binding result (OsMADS6 aa 50-200): binds

B14: OsRAP1B aa 30-180 (other)
chain: KKANEISVLCDAEVALIIFSTKGKLYEYATDSCMDKILERYERYSYAEKVLISAESDTQGNWCHEYRKLKAKVETIQKCQKHLMGEDLESLNLKELQQLEQQLENSLKHIRSRKSQLMLESINELQRKEKSLQEENKVLQKELVEKQKVQK
notes: bait, Gal4 DBD fusion; also called PN20232
binding result (OsMADS45 aa 61-248): binds

B15: OsPN29117 aa 29-160 (other)
chain: VPAHSTFGELKGVLTQATGVEPERQRLFFRGKEKSDNEFLHTAGVKDGAKLLLLEKPAPANVEQRAEPVIMDESMMKACEAVGRVRAEVDRLSAKVCDLEKSVFAGRKIEDKDFVVLTELLMMELLKLDGIE
notes: prey, AD fusion
binding result (OsHSP70 aa 138-360): binds

B16: OsAAK72891 aa 342-638 (other)
chain: LQEKTEELFKFKREKGLLTLKNDVEFEPLRKKIPQIISRMDQIISKNIKMPSLCMTNDGLDERCISAKRIDSLYYENQHLRGLLADNMKDVKELSSQLSEASKEMSIQLSSEDDLLRQIAKIKEEYEDLQIEAGVRDGVYQTITRKLLDDSMNSMHDAATNFSTELSSLEAMISEKEKALCLSNEENRMLKEKIAELEQCLIQDKQEDPEVIKQESTEIILRDIEVAPHISPRRSHETPKQDMQYDELVKLNSSLEIASAALKEVENKNIDYNGIFTKNEQEKQLECILISIMKLSK
notes: prey, AD fusion; also called PN26317; O. sativa Putative Myosin Heavy Chain
binding result (Os018989-4003 aa 90-220): binds
